Experimental data reported in paper PMC3077074.

Biological target: Helicobacter hepaticus Group III 2/2 hemoglobin (Hh Hb), wild type (Helicobacter hepaticus ATCC51449)
Assay: NMR 15N relaxation

Q: How did the stoichiometry N turn out when “Helicobacter hepaticus Group III 2/2 hemoglobin (Hh Hb), wild type (natural protein)” was run?
A: > 2
